{
  "source": "paper PMC4920197",
  "about": "“SMN and coilin negatively regulate dyskerin association with telomerase RNA” (Biology Open, 2016)",
  "target": "T1, GFP-tagged SMN E134K (human, UniProt Q16637 1-294, E134K)",
  "T1 construct": "survivor of motor neuron protein (SMN) with the clinically defined SMA patient mutation E134K, made from GFP-SMN; source: HeLa, transfected (FuGENE HD), in lysate",
  "T1 sequence (Q16637 whole entry E134K)": "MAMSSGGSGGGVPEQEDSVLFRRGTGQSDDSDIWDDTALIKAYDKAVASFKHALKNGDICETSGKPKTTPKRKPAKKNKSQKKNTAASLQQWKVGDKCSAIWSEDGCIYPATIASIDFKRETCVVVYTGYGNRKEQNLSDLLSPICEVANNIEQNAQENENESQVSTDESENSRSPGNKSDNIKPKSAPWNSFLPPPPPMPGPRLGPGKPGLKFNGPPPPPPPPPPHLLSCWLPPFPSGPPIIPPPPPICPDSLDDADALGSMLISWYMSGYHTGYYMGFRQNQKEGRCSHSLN",
  "experiment": "co-IP; HeLa cells transfected 24 h with GFP vector or GFP-tagged coilin or SMN constructs; lysate in mRIPA buffer immunoprecipitated with anti-GFP antibody; endogenous dyskerin or NAF1 detected by western blot",
  "conditions": "partners not purified",
  "data": [
    {"binder": "dyskerin (natural protein, human (endogenous in HeLa), UniProt O60832 1-514, looked up, dyskerin, endogenous in HeLa cells; also called telomerase and box H/ACA scaRNP core protein dyskerin; source: endogenous, HeLa lysate) MADAEVIILPKKHKKKKERKSLPEEDVAEIQHAEEFLIKPESKVAKLDTSQWPLLLKNFDKLNVRTTHYTPLACGSNPLKREIGDYIRTGFINLDKPSNPSSHEVVAWIRRILRVEKTGHSGTLDPKVTGCLIVCIERATRLVKSQQSAGKEYVGIVRLHNAIEGGTQLSRALETLTGALFQRPPLIAAVKRQLRVRTIYESKMIEYDPERRLGIFWVSCEAGTYIRTLCVHLGLLLGVGGQMQELRRVRSGVMSEKDHMVTMHDVLDAQWLYDNHKDESYLRRVVYPLEKLLTSHKRLVMKDSAVNAICYGAKIMLPGVLRYEDGIEVNQEIVVITTKGEAICMAIALMTTAVISTCDHGIVAKIKRVIMERDTYPRKWGLGPKASQKKLMIKQGLLDKHGKPTDSTPATWKQEYVDYSESAKKEVVAEVVKAPQVVAEAAKTAKRKRESESESDETPPAAPQLIKKEKKKSKKDKKAKAGLESGAEPGDGDSDTTKKKKKKKKAKEVELVSE", "values": [
      {"measurement": "decrease of dyskerin in the SMN complex relative to WT SMN", "result": "~50", "unit": "%"}
    ]}
  ]
}
